# Experiment: yeast display, Sf9 membrane polyspecificity reagent, FACS + sequencing; frameworks hold sequencing errors
# Summary of the method: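 In a synthetic yeast display library (Saccharomyces cerevisiae BJ5465), nanobody expression was induced with galactose for 36–48 hours. FACS gates were set low and high (top ~1%) using anti-HA fluorescence for expression and streptavidin fluorescence for binding of the Sf9 membrane reagent. Each polyreactivity label is drawn from the gate of origin.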
row,Sequence,polyreactivity (PSR sort gate)
1,QVQLVESGGGLVQEGGSLRVSCAASGSTLIRNVMVRYRQAPGKERELVAVITYGVGSTYYADSVKGRFTISRDNAKNTVYLQMNSLKPEDTAVYYCNKDPLVFDYWGQGTQVTVSS,low polyreactivity
2,QVQLVESGGGLVQGGGSLRLSCAASGFIFDDNSMGWYRQAPGKERELVAAITSGGGSTYYADSVKGRFTISRDNAKNTVYLQMNSLKPEDTAVYYCNAVPSQHDEFDYWGQGTQVTVSS,low polyreactivity
3,QVQLVESGGGLVQGGGSLRLSCAASGITFGDYAMGWYRQAPGKERELVAGINWSGDGTYYADSVKGRFTISRDNAQNTDYLQLNSLKPEDTAVYNCAAETFYDYGGYDYWGQGTQVTVSS,low polyreactivity
4,QVQLVESGGGLVQGGGSLRLSCAASGRNFKYNTMGWYRQAPGKERDLVAAISLSSGSGGGTRYADSVKGRFTISRDNAKNSVYLQMNSLKPEDSAVYYCAARHRYTNEYDYWGHGTQVTVSS,low polyreactivity
5,QVQLVESGGGLVQGGGSLRLSCAASGSIFTYNAIRSYRQAPGKERELVAAINTSGSTNYADSVKGRFTLSRDNAKNTVYLQMNSVKPEVTAVYYCAAGIVVTGYDYWGHGTQVTVSS,low polyreactivity
6,QVQLVESGGGLVQGGGSLSLSCAASGSNFWRYAMGWYRQAPGKEMELVAVISDRGCITYYADSVKGRFTISRDNAKNTVYLQMNSLKPEDTAVYYCNAVDSDRSDPSEYDYWGQGTQVTLSS,low polyreactivity
7,QVQLVESGGGLVQPGGSLRLSCAASGFIFLGYAMGWYRQAPGKERELVATITWRGGSTYYADSVKGRFTISRDNAKNTVYLQMNSLIPEDTADYYCAATRGWLHSFARDDHDYWGQGTQVTVSS,high polyreactivity
8,QVQLVESGGGLVQPGGSLRLSCAASGFIFSYYVMGWYRQAPGKERELVAAITTSGDSTYYADSVKGRFTISRDNAKNSVYLQMNSLKPEDTAVYYCNTVYRYRYYWGQGTHVTVSS,high polyreactivity
9,QVQLVESGGGLVQPGGSLRLSCAASGFTFYLYALGWYRQAPVKERELVASISSGGRTYYADSVKGRFTISRDNAKNTVYVQMNRLKPADTAVYYCAARRPAWYWSAYRYYSEMDYWGQGTQVTVSS,high polyreactivity
10,QVQLVESGGGLVQPGGSLRLSCAASGRIFYYYAMGWYRQAPGKERELVAAITWNGTSTYYADSVKGRFTISRDNAKNTVYLQMNSLKPEDTAVYYCAKSLRAYRHVIYGKPFYSWGQGTQVTVSS,low polyreactivity
11,QVQLVESGGGLVQPGGSLRLSCAASGSIFIVYAMGWYRQAPGQERELVAGISVRTGSTYYADSVKGRFTISRDNAKNTGYLQMNSLKPEDTAVYYCAAPGYTGLGRNYWGQGTQVTVSS,low polyreactivity
12,QVQLVESGGGLVQPGGSLRLSCAASGSIFPYYAKGWYRKAPGKERELVADITSSGGSTYYADSVMGRFTISRDNAKNTVYLQMNSLKPEDTAVYYCAADGAVVSSSRKFGYWGQGTQVTVSS,low polyreactivity
13,QVQLVESGGGLVQPGGSLRLSCAASGSIFTRNAMGWYRQAPGKERELVAAITKRGGSTYYADSVKGRFTISRDNAKNTVYLQMNSLKPEETAVYSCAADVYKYKHTQEYHVGRMDYWGQGTQVTVSS,low polyreactivity
14,QVQLVESGGGLVQPGGSLRLSCAASGSNFEPYAMGWYRQAPGKERELVAAISSGGSTNYADSVKGRFTISRDNAKNTVYLQMNSLKPEDTAVYFCAAAYYTVGWLFYDYWYPFAYYYWGQGTQVTVSS,low polyreactivity
15,QVQLVESGGGLVQPGGSLRLSCAASGSTFLVYAMGWYRQAPGKERELVAVIDNGGDTYYADSVKGRFTISRDNAKNTVYLPMNSMKPEDTEVYYCAADLSYLGYCEYDYWGQGTQVNVSS,low polyreactivity
16,QVQLVESGGGLVQPGGSLRLTCAAYGFIFGYNSMGWYSQAPGKERELVAAISSGGSTYYADSVNGLFTISRDNAKNTVYLQMNSVKPDDTAVYYCAVELGYPIQSDALWWDFEYWGQGTQVTVSS,low polyreactivity
17,QVQLVESGGGLVQPRGSLRLSCAASGSILGHYAMGWYRQAPGKERELVAAISWRGGTTYYADSVKGRFTISRDNAKNTVYLQMNSLKPEDTAVYYCNADVWVYPYDYWGQGTQVTVSS,low polyreactivity
18,QVQLVESGGGLVQSGGSHPLSCAASGRTFYSYAMRGYRQAPGKDSEFVAAIRRCGSSTYYADSVKGRFTISRDNAKNTVYLQMNSLKPEDTAVYYCNAAPYIYPIRGNYWGQGTQETVSS,high polyreactivity
19,QVQLVESGGGLVQSGGSLRLSCAASGCIFSKNAMGWYRPAPGKERELVAAISWSGGSTSYADSVKGRFTISRDNAKNTVYLQMNSLKPEDTAVYYCARVGAIPSRYGYWGQGTQVTVSS,high polyreactivity
20,QVQLVESGGGLVQSGGSLRLSCAASGFIFEAYAMGWYRQAPGKEMELVAAISSGGSTKYADSVKGRFTISRDNAKNSVYLQMNSLKPEDTAVYYCAKSSWTYGAYNYLGQGTQVTVSS,high polyreactivity
21,QVQLVESGGGLVQSGGSLRLSCAASGFTFRFYAMGWYSQAPGKEREMVAAITSSGGSTFYADSVKGRFTISRDNAKNTVYLQMNSLKPEDTAVYYCAASVGREVGWGQGTQVTVSS,high polyreactivity

row,Sequence,polyreactivity (PSR sort gate)
1,QVQLVESGGGLVQSGGSLRLSCAASGFTLYYYAMGWYRQAPGKERELVARISGSSGRTYYADSVKGRFTISRDNAMNTFYLQMNSLKPEDTAVYFCAARYYTSATMDYWGQGTQVTVSS,high polyreactivity
2,QVQLVESGGGLVQSGGSLRLSCAASGIIFSRNAMGWYRQAPGKERELVAGITSSGGTTYYADSVKGRFTISRDNAKNTVYLQMNSLKPEDTAVYYCAAYSTQNYSYRRYYYWGQGTQVTVSS,high polyreactivity
3,QVQLVESGGGLVQSGGSLRLSCAASGITFDHYAMGWYRQAPGKERELVAAISVSGGRTYYADSVKGRFTISRDNAKNTVYLQMNSLKPEDTAVYYCAKVSQVRGFYYWGQGTQVTVSS,high polyreactivity
4,QVQLVESGGGLVQSGGSLRLSCAASGITLRRNAMVWYRQAPGKERELVASISSRGGTTYYADSVKGRFTISRDNAKNTDYLQMISQKPEDTAVYYCAAYRVQRLANTGYDYWGQGTQVTVSS,high polyreactivity
5,QVQLVESGGGLVQSGGSLRLSCAASGLTFKENVMGWYRQAPGKERELVAAISTGASTYYADSVKGRFTISRDNAKNTVYLQMNSLKPEDTAVYYCAKRVTRWYGYWGQGTQVTVSS,high polyreactivity
6,QVQLVESGGGLVQSGGSLRLSCAASGLTFMVYAMGWYRQAPGKEREFVAAITFSGGRTYYADSVKGRFTISRDNAKNTVYLQMNSLKPEDTAVYYCNAEAWSLGYDYWGQGTQVTVSS,low polyreactivity
7,QVQLVESGGGLVQSGGSLRLSCAASGRIFDYNAMGWYRQAPGKERELVAAINSGGSTYADSVKGRFTISRDNAKNTVYLQMNSLKPEDTAVYYCNATPQFATFTYDYCGQGTQVTVSS,low polyreactivity
8,QVQLVESGGGLVQSGGSLRLSCAASGRIFNIYAMGWYRPAPGKERELVAAISGSGGRTSYADSVKGRFTISRDNAKNTVYLQMNSLKPEDTAVYYCAADYSFYTSFRYDYWGQGTQVTVSS,low polyreactivity
9,QVQLVESGGGLVQSGGSLRLSCAASGRISYYYAMGWYRQAPGKERELVARISKSGGSTYYADSVKGRFTISRDNAKNTVYLQMNSLKPVVTAVYFCAARWKTGYNYWGEGTQVTVSS,high polyreactivity
10,QVQLVESGGGLVQSGGSLRLSCAASGRTFRYYAMGWYRQAPGKERELVAAISWNGANTYYADSVKGRFTISRDNAKNTVYLQMNSLKPEDTAVYYCAATYYRWKGYDYWGQGTQVNVSS,high polyreactivity
11,QVQLVESGGGLVQSGGSLRLSCAASGRTIGAYAMGWYRQAPGKEREFVAAITFGGGPTYYADSVKGRFTISRDNAKNTVYLQMNSLKPEDTAVYYCAKRIDLSFPFARYDYWGQGTQVTVSS,low polyreactivity
12,QVQLVESGGGLVQSGGSLRLSCAASGSTFTSNTMGCYRQAPGKESEIVAGITWRGGSTYYADSVKGRFTISRDNAKNTVYLQMNSLKPEDTAVYYCAAYGYSKDVWNFYYWGQGTQVTVSS,low polyreactivity
13,QVQLVESGGGLVQSGGSLRLSCAASGSTVDDNAMGWSRQAPGQVMELVAAIDTSGGSTYADSVKGRFTISRYNAKNTVYLQMNSQKPEDTAVYYCAKPFSSNSWSHGYWGQGTQVTVSS,low polyreactivity
14,QVQLVESGGGLVQSGGSLRLSCVASGRTFRWYPMGWYRQEPGKERELVATITLNGGSTYYADSVKGRFTISRDNEKNTVYLQMNSLKPEDTAVYYCNRGTNVVRRGVYSFGYDYWGHGTQVTVSS,low polyreactivity
15,QVQLVESGGGLVQSGGSLRLTCAASGFTFYDYDMGWYRQAPGKERELVATITWSVGRTYYADSVKGRFTISRDTAKNTVYLQMNSLKPEDTAVYYCAADEPDRDYGYWGQGTQVTVSS,low polyreactivity
16,QVQLVESGGGLVQSGGSLRLTCAASGSIIRYYTMGWYRQAPGKERELVATITQSGGSTYYADSVKGRFTISRDNAKNTVYLQINSLKPEDTAVYYCAALVRRGFRLYGSWGQGTQVTVSS,high polyreactivity
17,QVQLVESGGGLVQSGGTLRLSCAASGFTFYWYAMGWYRQAPGKEREMVAAITRGGRTYYEDSVKGRFTITRDNAKNTVYLQMNSLKPEDNAVYYCYAYVSWYRTVRTKYDYWGQGTQVTVSS,high polyreactivity
18,QVQLVESGGGLVQSGGTLRLSCAASGSTFYVNAMGWYRLAPGKERELVAAINYSGGNTYYADSVKGRFTFSRDNAKNTVYLQMNTLKQEDTAVYYCAVDLIIKGYPWWIEDDYWGQGTQVTVSS,high polyreactivity
19,QVQLVESGGGLVQTGGSLRLSCAASGLTLYVYAMGWYRQAPGKERELVASITSGGSTNYADSVKGRFTISRDNAKNTVYLQMNSLKPEDTAVYYCAAETDTVYDWIAPYVTYDYWGQGTQVTVSS,low polyreactivity
20,QVQLVESGGGLVQTGGSLRLSCAASGRTFGYNAMGWYRQAPGKERELVASISYSGGSTYYADSVKGRFTISRDNAKNTVYLQMNSLKPEDTAVYYCAAKYWYWQSPSKYYYWGQGTQVTVSS,high polyreactivity

# From the nanobody polyreactivity screen of Harvey et al. (2022)
